Each block holds one binder with its values, some of them ahead of it.
Legend:
[1] = target: PD-L1 on CHO-PD-L1 cells (Promega blockade system) (UniProt Q9NZQ7 19-290, limits assumed); test: cell-based or functional assay
[2] = target: T1, Cyno PD-L2-Fc (cyno, UniProt A0A2K5U5Z4 20-219); test: ForteBio Octet, IgG on sensor, Fc-fusion antigen in solution (avid)
T1 construct: not shown: Fc part of the fusion
T1 sequence: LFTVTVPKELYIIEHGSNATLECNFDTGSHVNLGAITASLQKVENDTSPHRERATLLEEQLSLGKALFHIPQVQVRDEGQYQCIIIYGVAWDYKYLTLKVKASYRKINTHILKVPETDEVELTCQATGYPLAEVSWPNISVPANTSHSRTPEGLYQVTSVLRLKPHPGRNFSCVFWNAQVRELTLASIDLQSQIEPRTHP
Description: (§1) ForteBio KD measurements—ForteBio affinity measurements were performed on an Octet RED384 generally as previously described (sec, e.g., Estep et al., 2013). Briefly, ForteBio affinity measurements were performed by loading IgGs on-line onto AHQ sensors. Sensors were equilibrated off-line in assay buffer for 30 min and then monitored on-line for 60 seconds for baseline establishment. Sensors with loaded IgGs were exposed to 100 nM antigen for 3 minutes, and afterwards were transferred to assay buffer for 3 min for off-rate measurement. For monovalent affinity assessment Fabs were used instead of IgGs. For this assessment the unbiotinylated Fc fusion antigen was loaded on-line onto the AHQ sensors. Sensors were equilibrated off-line in assay buffer for 30 min and then monitored on-line for 60 seconds for baseline establishment. Sensors with loaded antigen were exposed to 100 nM Fab for 3 minutes, and afterwards they were transferred to assay buffer for 3 min for off-rate measurement. All kinetics were analyzed using the 1:1 binding model.

[3] = target: T2, Cyno PD-L1-Fc (cyno, UniProt G7PSE7 19-238); test: as above
T2 construct: not shown: The Fc part of the fusion and any linker to it
Description: as §1

[4] = target: T3, Mouse PD-L1-Fc (mouse, UniProt Q9EP73 19-238, limits assumed); test: as above
T3 construct: also called murine PD-L1; not shown: Fc part of the fusion
Description: as §1

[5] = target: T4, Human PD-L2-Fc (human, UniProt Q9BQ51 20-220); test: as above
T4 construct: not shown: Fc part of the fusion
T4 sequence: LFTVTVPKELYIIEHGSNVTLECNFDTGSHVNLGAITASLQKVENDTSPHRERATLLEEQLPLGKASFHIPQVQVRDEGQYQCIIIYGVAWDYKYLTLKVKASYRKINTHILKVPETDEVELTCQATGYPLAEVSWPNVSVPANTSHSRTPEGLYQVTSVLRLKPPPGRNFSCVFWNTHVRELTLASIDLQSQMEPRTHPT
Description: as §1

[6] = target: T5, Human PD-L1-Fc (human, UniProt Q9NZQ7 19-238); test: as above
T5 construct: not shown: Fc part of the fusion
Description: as §1

[7] = target: T6, Mouse PD-L2-Fc (mouse, UniProt Q9WUL5 20-219, limits assumed); test: as above
T6 construct: also called murine PD-L2; not shown: Fc part of the fusion
T6 sequence (looked up): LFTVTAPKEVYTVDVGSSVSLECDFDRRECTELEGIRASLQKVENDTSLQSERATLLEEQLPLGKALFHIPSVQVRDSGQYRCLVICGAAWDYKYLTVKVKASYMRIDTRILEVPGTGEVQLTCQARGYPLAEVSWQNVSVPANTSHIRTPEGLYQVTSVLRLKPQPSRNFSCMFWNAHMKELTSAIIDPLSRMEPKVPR
Description: as §1

[8] = target: T4, Human PD-L2-Fc; test: ForteBio Octet, Fc-fusion antigen on sensor, Fab in solution (monovalent)
Description: as §1

[9] = target: T5, Human PD-L1-Fc; test: as above
Description: as §1

[10] = target: T6, Mouse PD-L2-Fc; test: column 'Species cross-reactivity'
[11] = target: T7, PD-L2 on CHO-PD-L2 cells (Promega blockade system) (UniProt Q9BQ51 20-273, limits assumed); test: cell-based or functional assay
T7 sequence (looked up): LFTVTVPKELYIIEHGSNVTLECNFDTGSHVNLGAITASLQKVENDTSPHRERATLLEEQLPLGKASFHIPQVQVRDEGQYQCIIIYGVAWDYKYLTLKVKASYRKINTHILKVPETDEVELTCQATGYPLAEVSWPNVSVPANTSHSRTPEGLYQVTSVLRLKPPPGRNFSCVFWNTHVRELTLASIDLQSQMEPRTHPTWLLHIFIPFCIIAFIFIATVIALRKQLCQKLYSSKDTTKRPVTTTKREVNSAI

[12] = target: PD-L2 on CHO-PD-L1/PDL2 cells (Promega blockade system); test: cell-based or functional assay
[13] = target: PD-L1 on CHO-PD-L1/PDL2 cells (Promega blockade system); test: cell-based or functional assay
[14] = target: T3, Mouse PD-L1-Fc; test: column 'Species cross-reactivity'

T2 sequence (G7PSE7 entry or part of it limits assumed): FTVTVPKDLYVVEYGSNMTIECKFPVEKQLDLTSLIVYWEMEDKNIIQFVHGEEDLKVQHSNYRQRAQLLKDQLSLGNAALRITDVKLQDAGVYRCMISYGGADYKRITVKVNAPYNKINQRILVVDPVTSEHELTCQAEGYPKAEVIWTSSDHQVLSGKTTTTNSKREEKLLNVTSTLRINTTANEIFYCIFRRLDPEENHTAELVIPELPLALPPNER
T3 sequence (Q9EP73 19-238 limits assumed): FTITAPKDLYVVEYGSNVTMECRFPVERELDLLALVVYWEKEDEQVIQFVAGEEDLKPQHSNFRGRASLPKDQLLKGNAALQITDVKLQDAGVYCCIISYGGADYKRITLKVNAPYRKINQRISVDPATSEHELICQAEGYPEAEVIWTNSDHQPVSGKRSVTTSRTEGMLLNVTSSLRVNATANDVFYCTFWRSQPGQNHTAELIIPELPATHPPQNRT

binding result [8]: no binding (tested: 100 nM)
Kd [9]: 823 pM
B2: ADI-20230 Fab (Fab, V domains shown)
VH: QVQLVQSGAEVKKPGSSVKVSCKASGGTFSSYFISWVRQAPGQGLEWMGQIIPNVGTANYAQKFQGRVTITADESTSTAYMELSSLRSEDTAVYYCARDQTAKAHLVWGQGTLVTVSS
VL: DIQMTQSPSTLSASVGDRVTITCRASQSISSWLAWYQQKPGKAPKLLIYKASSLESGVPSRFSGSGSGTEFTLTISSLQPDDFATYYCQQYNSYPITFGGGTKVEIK
notes: also called cLC-PDL1 (22726) Fab

binding result [10]: binds
EC50 (read off the curve); luciferase fold induction, Promega CHO-PD-L2 / PD-1 Jurkat assay [Cont'd] [11]: ~200 pM
Kd [2]: 253 pM
binding result [3]: no binding (tested: 100 nM)
binding result [4]: no binding (tested: 100 nM)
Kd [5]: 487 pM
binding result [6]: no binding (tested: 100 nM)
B3: ADI-20241 (antibody, V domains shown)
VH: QVQLVQSGAEVKKPGSSVKVSCKASGGTFSEYAIVWVRQAPGQGLEWMGGIIPLFGTANYAQKFQGRVTITADESTSTAYMELSSLRSEDTAVYYCARPLDRRIVAFDIWGQGTMVTVSS
VL: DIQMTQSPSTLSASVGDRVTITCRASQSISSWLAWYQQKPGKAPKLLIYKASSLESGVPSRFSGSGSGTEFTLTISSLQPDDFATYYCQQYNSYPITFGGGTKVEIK
notes: Vk1-05 common light chain; also called PD-L2-C2-1; cLC-PDL2 (22726)

binding result [10]: binds
EC50 (read off the curve); luciferase fold induction, Promega CHO-PD-L2 / PD-1 Jurkat assay [Cont'd] [11]: ~200 pM
Kd [2]: 640 pM
binding result [3]: no binding (tested: 100 nM)
binding result [4]: no binding (tested: 100 nM)
Kd [5]: 416 pM
binding result [6]: no binding (tested: 100 nM)
B6: ADI-20236 (antibody, V domains shown)
VH: QVQLVQSGAEVKKPGSSVKVSCKASGGTFSSHAISWVRQAPGQGLEWMGGIIPIFGWALYAQKFQGRVTITADESTSTAYMELSSLRSEDTAVYYCARPGDHRASHFDYWGQGTLVTVSS
VL: DIQMTQSPSSVSASVGDRVTITCRASQGISSWLAWYQQKPGKAPKLLIYAASSLQSGVPSRFSGSGSGTDFTLTISSLQPEDFATYYCQQANSFPITFGGGTKVEIK
notes: Vk1-12 common light chain; also called PD-L2-C1-1; cLC-PDL2 (22731)

binding result [8]: no binding (tested: 100 nM)
Kd [9]: 833 pM
B9: ADI-20225 Fab (Fab, V domains shown)
VH: QVQLVQSGAEVKKPGASVKVSCKASGGTFRSYAIQWVRQAPGQGLEWMGWIIPGFGTANYAQKFQGRVTITADESTSTAYMELSSLRSEDTAVYYCARELSHGGLSYWGQGTLVTVSS
VL: DIQMTQSPSSVSASVGDRVTITCRASQGISSWLAWYQQKPGKAPKLLIYAASSLQSGVPSRFSGSGSGTDFTLTISSLQPEDFATYYCQQANSFPITFGGGTKVEIK
notes: also called cLC-PDL1 (22731) Fab

Second part, the binder before the results:

B1: ADI-20230 (antibody, V domains shown)
VH: QVQLVQSGAEVKKPGSSVKVSCKASGGTFSSYFISWVRQAPGQGLEWMGQIIPNVGTANYAQKFQGRVTITADESTSTAYMELSSLRSEDTAVYYCARDQTAKAHLVWGQGTLVTVSS
VL: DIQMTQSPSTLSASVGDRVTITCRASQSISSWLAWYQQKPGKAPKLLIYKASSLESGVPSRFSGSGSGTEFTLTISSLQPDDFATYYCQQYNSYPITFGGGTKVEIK
notes: Vk1-05 common light chain; also called PD-L1-C2-1; cLC-PDL1 (22726)
EC50 (read off the curve); luciferase fold induction, Promega CHO-PD-L1 / PD-1 Jurkat assay [1]: ~100 pM
binding result [2]: no binding (tested: 100 nM)
Kd [3]: 264 pM
binding result [4]: no binding (tested: 100 nM)
binding result [5]: no binding (tested: 100 nM)
Kd [6]: 205 pM
binding result [7]: no binding (tested: 100 nM)

B4: DiPDL candidate C2 (bispecific antibody, V domains shown)
VH 1: QVQLVQSGAEVKKPGSSVKVSCKASGGTFSSYFISWVRQAPGQGLEWMGQIIPNVGTANYAQKFQGRVTITADESTSTAYMELSSLRSEDTAVYYCARDQTAKAHLVWGQGTLVTVSS
VH 2: QVQLVQSGAEVKKPGSSVKVSCKASGGTFSEYAIVWVRQAPGQGLEWMGGIIPLFGTANYAQKFQGRVTITADESTSTAYMELSSLRSEDTAVYYCARPLDRRIVAFDIWGQGTMVTVSS
VL: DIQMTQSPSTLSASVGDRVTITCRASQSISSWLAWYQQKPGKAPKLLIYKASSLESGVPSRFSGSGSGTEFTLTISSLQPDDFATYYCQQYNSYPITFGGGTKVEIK
EC50 (read off the curve); luciferase fold induction, Promega CHO-PD-L1/PD-L2 / PD-1 Jurkat assay, combined blockade of PD-L1 and PD-L2 [Cont'd] [12]: ~600 pM
EC50 (read off the curve); luciferase fold induction, Promega CHO-PD-L1/PD-L2 / PD-1 Jurkat assay, combined blockade of PD-L1 and PD-L2 [Cont'd] [13]: ~600 pM

B5: ADI-20241 Fab (Fab, V domains shown)
VH: QVQLVQSGAEVKKPGSSVKVSCKASGGTFSEYAIVWVRQAPGQGLEWMGGIIPLFGTANYAQKFQGRVTITADESTSTAYMELSSLRSEDTAVYYCARPLDRRIVAFDIWGQGTMVTVSS
VL: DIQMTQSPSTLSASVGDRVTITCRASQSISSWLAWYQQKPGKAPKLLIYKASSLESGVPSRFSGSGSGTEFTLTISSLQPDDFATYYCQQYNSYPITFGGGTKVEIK
notes: also called cLC-PDL2 (22726) Fab
Kd [8]: 1990 pM
binding result [9]: no binding (tested: 100 nM)

B7: ADI-20236 Fab (Fab, V domains shown)
VH: QVQLVQSGAEVKKPGSSVKVSCKASGGTFSSHAISWVRQAPGQGLEWMGGIIPIFGWALYAQKFQGRVTITADESTSTAYMELSSLRSEDTAVYYCARPGDHRASHFDYWGQGTLVTVSS
VL: DIQMTQSPSSVSASVGDRVTITCRASQGISSWLAWYQQKPGKAPKLLIYAASSLQSGVPSRFSGSGSGTDFTLTISSLQPEDFATYYCQQANSFPITFGGGTKVEIK
notes: also called cLC-PDL2 (22731) Fab
Kd [8]: 541 pM
binding result [9]: no binding (tested: 100 nM)

B8: ADI-20225 (antibody, V domains shown)
VH: QVQLVQSGAEVKKPGASVKVSCKASGGTFRSYAIQWVRQAPGQGLEWMGWIIPGFGTANYAQKFQGRVTITADESTSTAYMELSSLRSEDTAVYYCARELSHGGLSYWGQGTLVTVSS
VL: DIQMTQSPSSVSASVGDRVTITCRASQGISSWLAWYQQKPGKAPKLLIYAASSLQSGVPSRFSGSGSGTDFTLTISSLQPEDFATYYCQQANSFPITFGGGTKVEIK
notes: Vk1-12 common light chain; also called PD-L1-C1-1; cLC-PDL1 (22731)
EC50 (read off the curve); luciferase fold induction, Promega CHO-PD-L1 / PD-1 Jurkat assay [1]: ~100 pM
binding result [14]: binds
binding result [2]: no binding (tested: 100 nM)
Kd [3]: 237 pM
binding result [5]: no binding (tested: 100 nM)
Kd [6]: 223 pM
binding result [7]: no binding (tested: 100 nM)

B10: DiPDL candidate C1 (bispecific antibody, V domains shown)
VH 1: QVQLVQSGAEVKKPGASVKVSCKASGGTFRSYAIQWVRQAPGQGLEWMGWIIPGFGTANYAQKFQGRVTITADESTSTAYMELSSLRSEDTAVYYCARELSHGGLSYWGQGTLVTVSS
VH 2: QVQLVQSGAEVKKPGSSVKVSCKASGGTFSSHAISWVRQAPGQGLEWMGGIIPIFGWALYAQKFQGRVTITADESTSTAYMELSSLRSEDTAVYYCARPGDHRASHFDYWGQGTLVTVSS
VL: DIQMTQSPSSVSASVGDRVTITCRASQGISSWLAWYQQKPGKAPKLLIYAASSLQSGVPSRFSGSGSGTDFTLTISSLQPEDFATYYCQQANSFPITFGGGTKVEIK
EC50 (read off the curve); luciferase fold induction, Promega CHO-PD-L1/PD-L2 / PD-1 Jurkat assay, combined blockade of PD-L1 and PD-L2 [Cont'd] [12]: ~200 pM
EC50 (read off the curve); luciferase fold induction, Promega CHO-PD-L1/PD-L2 / PD-1 Jurkat assay, combined blockade of PD-L1 and PD-L2 [Cont'd] [13]: ~200 pM

— patent publication US20250129167A1 (University of Texas, published 2025)
